Assay results taken from patent US20240026407A1, “MODIFICATION OF SAPONINS” (GLAXOSMITHKLINE BIOLOGICALS SA, priority 2020, published 2024).

How the values were obtained:
[1] = Example 9: screening of rhamnosidase variants for derhamnosylation of saponins in crude bark extract; type: biochemical, Quillaja saponaria; details: R1 round: 20 deg C, 22 h, lysate 1.25% v/v, CBE 80% v/v, 100 mM Potassium phosphate pH 6
In short: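 His-tagged Kribbella flavida rhamnosidase variants expressed in colonies; cell lysates added at the indicated % loading (1% = 2 ul lysate per 200 ul reaction) to pH 6 Quillaja saponaria aqueous bark extract (≥2.80 mg/ml QS-21) at 75% or 80% volume. Quenched with acidified MeCN, analysed by UV HPLC; activity as % conversion of the QS-17-family Left Peak.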

[2] = Example 10: derhamnosylation of saponins in crude bark extract (50%) using WT and engineered rhamnosidases R1 to R5; type: biochemical, Quillaja saponaria; details: 7 h, 50% CBE, 35 degC; for % Right Peak: starting CBE 26; for % Left Peak: starting CBE 30; for % Middle Peak: starting CBE 44
[3] = rhamnosidase 2.5 mg/ml + glucosidase G5 0.5 mg/ml
[4] = rhamnosidase 2.5 mg/ml, no glucosidase

- Right Peak % ([1]; negative control 26.35): 27.08%
- Left Peak % ([1]; negative control 29.36): 27.04%
- Middle Peak % ([1]; negative control 44.30): 45.89%
- Cumulative Fold improvement in primary enzyme loading × time [2, 3]: 2
- Fold improvement in primary enzyme loading × time [2, 3]: 2.0
- Cumulative Fold improvement in primary enzyme loading × time [2, 4]: 2
- Fold improvement in primary enzyme loading × time [2, 4]: 2.0
B1: Variant R1: engineered rhamnosidase polypeptide, variant of Kribbella flavida rhamnosidase SEQ ID No. 1017 (protein)
chain: MSFPAAPARLRFEHRTDPGPVLGIGTATPRLSWQVPTAPDDYRQAGYEVEIARGDAAPEQYTVDSADQVLVPWPGTPLAARESATVRVRVRGDGDWSQWSDPATVEAGLLSADDWTARFVSPRENAGHEAPAPLIGGVIDLPADIAQARLYATAHGIYEPTLNGTRVGDEQLAPGWTAYEQRLRYQTYDVTDLVAPGENRLELLVGNGWYRGRLGFHGGHSLYGDRLAVLAQLEVTTATGEVKVLASDGTWTTRETNVLADDLYDGQHVDLRRTLGEPGPVDVLDADLSLLVAPDGPPVRVTDVLPAKAVTTSPAGKTLVDFGQNVVGRLRLRVRGGAAGDEIVLRHAEVLEDGELGVRPLRTAKATDSFVLAGPDEVTLEPTLTFHGFRYAEITGVPDLRAEDVEAVVVGSDLRRTGWFESSHPLLDRFHENVVWGMRGNFLDVPTDCPQRDERLGWTGDIQVFSPTASFLFDTAGFLTNWLADLIAEQHKDGSVPFVVPDVLRQPGPATAAWGDAATIVPWVLYERTGDAGLLARQLPSMRAWVDRMAGLAGDDLLWVGGFQFGDWLDPTAPPDDPFRAKADPDVLATAHLARSAEVVALAAEVVGAGELAREYAELAARVRQAFAAEYTTGSGRVLSDAATNYALALQWALLPTEAQRKRAGERLADLVRTAGFRISTGFVGTPLMADALADSGHPDLAYRLLLETGCPSWLYAVTMDATTVWERWDSMLPDGSINPGQMTSFNHYALGAVADWMHRRVAGLAPGDPGYRRIVVDPLFTAHLTKASARHLTPYGEAAVAWSRSGGRVRLEVTVPVGARARVAVPGESAPVEVGHGTHEWTADDVYGETPPLPADATIRQLIDHEPSWTTLAAAATRTGIVADDAELAGRLERYLDHPATELVDAVSPRGFSPSAEALQAELDSVLGR
modifications: Seq ID No. 1017 with mutation K219G
- % conversion (Right peak/Left Peak) (−neg control) [1]: 2.74%
- Cumulative FIOP from WT ([1]; estimate): 1.7
- % conversion (Right peak/Left Peak) ([1]; negative control 47.30): 50.04%
- FIOP (% area increase variant/pos control) ([1]; positive control WT): 1.7
- % change in Left Peak [2, 3]: −40%
- % change in Middle Peak [2, 3]: −96%
- % change in Right Peak [2, 3]: 309%
- % Right Peak [2, 3]: 80%
- % Left Peak [2, 3]: 18%
- % Middle Peak [2, 3]: 2%
- % change in Left Peak [2, 4]: −35%
- % change in Middle Peak [2, 4]: 17%
- % change in Right Peak [2, 4]: 112%
- % Right Peak [2, 4]: 29%
- % Left Peak [2, 4]: 19%
- % Middle Peak [2, 4]: 51%
